The record followed here is the supplement of paper PMC9170038.

The series deals with MS2 coat protein. As to the kind of experiment: apparent KD of MS2 coat protein; designed switch direction (-1 OFF switch, 1 ON switch): -1; higher = weaker reporter binding. In short, it runs like this:
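SNAP-549-labelled MS2 coat protein was titrated, doubling from 0.7 or 1.5 nM to 3 µM, over designed RNA switches transcribed on Illumina chips by stalled E. coli RNA polymerase. Runs were done without input, with 200 uM small-molecule ligand, or with an oligonucleotide input. Apparent KD is the per-design median over clusters of curve-fitted normalised fluorescence.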

Where [1] appears, read: Eterna round: R95, input ligand: microRNA oligo, concentration not stated.
Where [2] appears, read: Eterna round: R95, input ligand: FMN 200 uM.
Setting [3] is: Eterna round: R95, input ligand: none.
Where [4] appears, read: input ligand: microRNA oligo, concentration not stated.

Turning to “GUUUUCAGACGGAGAUCCUACAUGAGGAUCACCCAUGUCUCUCUUGCUAAUUGCUCGUCUUUUCCUCCUCUGUUCUC [Elimod 35 - Jieux - Sensor, turn-off variant 1] (Eterna round: R97, puzzle: Sensor, turn-off variant 1)”, the “apparent KD of MS2 coat protein” value by setting is: (input ligand: FMN 200 uM) 457 nM; (input ligand: none) 567 nM.
The corresponding values for “UAAAACGCAGAGGAUAUAUCAGAUCAAAGCUGCAUAGAAGGCUGCACAUGAGGAUCACCCAUGUGGUCUUUAAU [Mat - Exclusion 6 - JL Mod - D1] (Eterna round: R97, puzzle: Exclusion 6)” are 206 nM and 20.6 nM.
With “UAAAAGCUAGGAUAUACAUGAGGAUCACCCAUGUCACGGGUGCCACACCGAAAGGUGCGUAGAAGGAGCCCAAA [Orrecedi] (puzzle: Exclusion 3)”, the “apparent KD of MS2 coat protein” value under setting [1] was determined as 38.4 nM.
For “UAAAAGCUAGGAUAUGCAAGGUCCGACAUGAGGAUCACCCAUGUGCUCCUAUGCACAUUUGCAGAAGGAGCGAAAA [EX5 A.6] (Eterna round: R97, puzzle: Exclusion 5)”, the “apparent KD of MS2 coat protein” value (input ligand: FMN 200 uM) was 537 nM and the “apparent KD of MS2 coat protein” value (input ligand: none) turned out to be 83 nM.
Turning to “UAAAAGGAUGUCAGGAUAUGCGCUUGGGAUCAAGAGCAGAAGGGACAUGAGGAUCACCCAUGUAACGGUGCGAA [Oraninus] (puzzle: Brourd's mod of Exclusion 4)”, the “apparent KD of MS2 coat protein” value reads like this: under setting [2], 36.4 nM; under setting [1], 33.9 nM; under setting [3], 44.5 nM.
The corresponding values for “UAAAAGGUAGGAUAUACGAAAAAAAAGGGUAGAAAAAAAACACAUGAGGAUCACCCAUGUAGAAGGACCAAAAC [salish99_ex2_r3_047] (puzzle: Exclusion 2)” are 103 nM, 33.2 nM and 30.3 nM.
Regarding “UAAAAUCUAGGAUAUACAUGAGGAUCACCCAUGUUGCUCCCAGCUCGUGACCUCCAAUGUAGAAGGAGAACGAU [EX3 A.15] (Eterna round: R97, puzzle: Exclusion 3)”, the “apparent KD of MS2 coat protein” value (input ligand: FMN 200 uM) turned out to be 19.8 nM and the “apparent KD of MS2 coat protein” value (input ligand: none) is 20.1 nM.
For “UAAACAAGCUAAAGAUCCCACAUGAGGAUCACCCAUGUGCUCGUCUUGUAACGUACUGUGACGAAAGUCACGGUACG [JL TOV1 3.11] (Eterna round: R97, puzzle: Sensor, turn-off variant 1)” the same measures were 19.1 nM and 22.8 nM.
The corresponding values for “UAAACAAGCUAAAGAUUCUACAUGAGGAUCACCCAUGUGCUCGUCUUAUAAGGUACUGUGACGAAAGUCACGGUACC [JL TOV1 3.07] (Eterna round: R97, puzzle: Sensor, turn-off variant 1)” are 17.9 nM and 21.1 nM.
The corresponding values for “UAAACCAGAGGAUAUGCGAAUAAAUAAAACUUUUUUUUUUAACAUGAGGAUCACCCAUGUAGAAGGCUGCAAUU [Ex2 #32] (Eterna round: R97, puzzle: Exclusion 2)” are 30.4 nM and 30 nM.
Regarding “UAAAGCGUAGGAUAUACAUUCAUGAGCACCACCCGGUGCACACAUGAGGAUCACCCAUGUAGAAGGAUGCUACG [Eternabot (Original) Solution 49] (Eterna round: R97, puzzle: Exclusion 2)”, the “apparent KD of MS2 coat protein” value runs as follows: (input ligand: FMN 200 uM) 14.6 nM; (input ligand: none) 17.6 nM.
For “UAAAGUAUAUAGGAUAUCUAGCUGGAAACAGCUAGAGAAGGAUGUACAUGAGGAUCACCCAUGUAAAUCGUGAA [Ex6/13-A1] (Eterna round: R97, puzzle: Exclusion 6)” the same measures were 16.2 nM and 13 nM.
For “UAAAUAAAUGUAGGAUAUCUGCACGAUUAGUGCAGAGAAGGACAUGAGGAUCACCCAUGUAUAGUAGCUUCGGCUACAAAUAAU [ENG1-C1] (Eterna round: R96, puzzle: Exclusion NG 1)”, the “apparent KD of MS2 coat protein” value by setting is: (input ligand: FMN 200 uM) 89.9 nM; under setting [4], 51.9 nM; (input ligand: none) 71.2 nM.
On to “UAAAUGUCAGGAUAUUGUUAAUUUAGUUGUUUGUAUUAGUUCGAGAAGGGACAUGAGGAUCACCCAUGUUAAAU [Ex4 #53] (Eterna round: R97, puzzle: Exclusion 4)”, for which the “apparent KD of MS2 coat protein” value reads like this: (input ligand: FMN 200 uM) 45.9 nM; (input ligand: none) 30.4 nM.
The corresponding values for “UAACAAGCUUAAAGAUCCCACAUGAGGAUCACCCAUGUGCUCGUCUUAUAACGUACUGUGACGAAAGUCACGGUACG [JL TOV1 3.13] (Eterna round: R97, puzzle: Sensor, turn-off variant 1)” are 29.2 nM and 26.3 nM.
For “UAACUUAUUGUAAGGAUAUCGGUCCGAAAGGACAACGAGAAGGUACAUGAGGAUCACCCAUGUGAAAUAAGAAU [Mod of Zala 21 - Jieux - Brourd's Mod of Exclusion 4] (Eterna round: R97, puzzle: Brourd's mod of Exclusion 4)” the same measures were 261 nM and 29.4 nM.
Consider “UAAGGGUGCGUAGGAUAUCGCGGCCGAAUAAAGCGAGAAGGACGCCCUAAUGGGUCGUCCAACAUGAGGAUCACCCAUGUAUAC [Uslaarus] (Eterna round: R96, puzzle: Exclusion NG 1)”, for which the “apparent KD of MS2 coat protein” value came out at 55.4 nM (input ligand: FMN 200 uM), 31.2 nM under setting [4] and 41.5 nM (input ligand: none).
For “UAAUAAAGGGUAGGAUAUGCCGAACAAACACGAGCAGAAGGACCAAAACACUACUUGAGGAUCACCCAAGUGUCCUUCCGUGGU [Mutated MS2 EX1.6] (Eterna round: R96, puzzle: Exclusion NG 1)” the same measures were 52.4 nM, 13.2 nM and 17.2 nM.
“UAAUAACAAGCGAGAUCCUACAUGAGGAUCACCCAUGUGCUCGUCUUAUAAGGUACUGUGACGAUAGUCACGGUACC [Mat - Sensor, turn-off var - Eli Mod - D96] (Eterna round: R97, puzzle: Sensor, turn-off variant 1)”: the “apparent KD of MS2 coat protein” value (input ligand: FMN 200 uM) turned out to be 17.8 nM and the “apparent KD of MS2 coat protein” value (input ligand: none) stood at 18.2 nM.
For “UAAUACAAGCAAAGAUCCUACAUGAGGAUCACCCAUGUGCUCGUCUUGUAAAGUACUAUCACGAAAGUGAUAGUACA [Mat - Sensor v3 - turn-off var 1 - Eli Mod - D77] (puzzle: Sensor v3, turn-off variant 1)”, the “apparent KD of MS2 coat protein” value reads like this: under setting [2], 41.2 nM; under setting [1], 17.1 nM; under setting [3], 114 nM.
The corresponding values for “UAAUGCAGGUAAAGAUUCUACAUGAGGAUCACCCAUGUGCUCGUCUUAUAAAGUACUAUCACGAAAGUGAUAGUACA [Mat - Sensor v3 - turn-off var 1 - Eli Mod - D101] (puzzle: Sensor v3, turn-off variant 1)” are 27.6 nM, 220 nM and 24.8 nM.
As for “UAAUGGACAGGAUAUACAUGAGGAUCACCCAUGUCGGCCGGUCCUGUUCUAAGAGCGAGUAGAAGGGUCACGUU [Eternabot (L1) Solution 4] (Eterna round: R97, puzzle: Exclusion 3)”, the “apparent KD of MS2 coat protein” value reads like this: (input ligand: FMN 200 uM) 11.6 nM; (input ligand: none) 11.9 nM.
“UAAUUGUGAGGAUAUUCGUUUAACACGGAGACGUGUUGAACGGAGAAGGCACAUGAGGAUCACCCAUGUUCCUU [Mat - Exclusion 4 - JL Mod - D17] (Eterna round: R97, puzzle: Exclusion 4)”: the “apparent KD of MS2 coat protein” value by setting is: (input ligand: FMN 200 uM) 89.9 nM; (input ligand: none) 19.3 nM.
Take “UAAUUUUUAGUAAGGAUAUCGGUCCCAAGGGACAACGAGAAGGUACAUGAGGAUCACCCAUGUGACGAAAGAAU [Mod of Zala 9 - Jieux - Brourd's Mod of Exclusion 4] (Eterna round: R97, puzzle: Brourd's mod of Exclusion 4)”: the “apparent KD of MS2 coat protein” value is, setting by setting: (input ligand: FMN 200 uM) 35.6 nM; (input ligand: none) 15.5 nM.
The corresponding values for “UACAGUCAUCCUUGUUGUUACAUGAGGAUCACCCAUGUUAGUAUAAUUAAGUUAUGUAAGUUUGUUGUUCGUUUUAU [JR_STOV1_v2_Sub076] (Eterna round: R97, puzzle: Sensor, turn-off variant 1)” are 94.2 nM and 101 nM.
“UACAUGAGGAUCACCCAUGUUUUGUCGUGUAUGGUAUUUAUCUAGGAUAUCAAUGUAUUAAUUUAUGAGAAGGAGAAUAUUAAU [JMF's solution 44] (Eterna round: R96, puzzle: Exclusion NG 3)”: the “apparent KD of MS2 coat protein” value is, setting by setting: (input ligand: FMN 200 uM) 42 nM; under setting [4], 27.3 nM; (input ligand: none) 43.2 nM.
“UACAUGAGGAUCACCCAUGUUUUGUCGUGUAUGGUAUUUAUCUAGGAUAUCAAUUGAUUUAGUUAUGAGAAGGAGAAUAUUAAU [JMF's solution 62] (Eterna round: R96, puzzle: Exclusion NG 3)”: the “apparent KD of MS2 coat protein” value is, setting by setting: (input ligand: FMN 200 uM) 27.2 nM; under setting [4], 20.6 nM; (input ligand: none) 30.1 nM.
Regarding “UACAUGAGGAUCACCCAUGUUUUGUCGUGUAUGGUAUUUAUCUAGGAUAUCAAUUUGAUUAUUUAUGAGAAGGAGAAUAUUAAU [JMF's solution 65] (Eterna round: R96, puzzle: Exclusion NG 3)”, the “apparent KD of MS2 coat protein” value reads like this: (input ligand: FMN 200 uM) 39.1 nM; under setting [4], 28.8 nM; (input ligand: none) 39.1 nM.
“UACAUGAGGAUCACCCAUGUUUUGUCGUGUAUGGUAUUUAUCUAGGAUAUCACGUUAUUUAUUUAUGAGAAGGAGAAUAUUAAU [JMF's solution 26] (Eterna round: R96, puzzle: Exclusion NG 3)”: the “apparent KD of MS2 coat protein” value is, setting by setting: (input ligand: FMN 200 uM) 38.9 nM; under setting [4], 17.1 nM; (input ligand: none) 39 nM.
